According to the Immune Epitope Database (IEDB):

Key:
HLA-A*02:01 [1] = test: IEDB peptide-MHC binding, purified MHC/competitive/fluorescence; ≥ and ≤ were set here for values at or beyond the usual limits of such assays
HLA-A*24:02 = test: as above
HLA-A*02:01 [2] = test: IEDB peptide-MHC binding, purified MHC/competitive/fluorescence; filed as Kd, often an IC50 or EC50 that approximates it; ≥ and ≤ were set here for values at or beyond the usual limits of such assays; details: source organism: Vaccinia virus Copenhagen
HLA-B*07:02 = test: IEDB peptide-MHC binding, purified MHC/direct/fluorescence; filed as Kd, often an IC50 or EC50 that approximates it; ≥ and ≤ were set here for values at or beyond the usual limits of such assays
HLA-B*58:01 = test: as above; details: source organism: SARS-CoV1
HLA-A*01:01 [3] = test: as above
HLA-B*53:01 = test: IEDB peptide-MHC binding, purified MHC/competitive/radioactivity; filed as Kd, often an IC50 or EC50 that approximates it; ≥ and ≤ were set here for values at or beyond the usual limits of such assays
HLA-A*01:01 [4] = test: as above; details: source organism: Dengue virus 1 Singapore/S275/1990
HLA-B*44:02 = test: as above
HLA-B*44:03 = test: as above
HLA-A*02:01 [5] = test: IEDB peptide-MHC binding, purified MHC/direct/fluorescence; filed as Kd, often an IC50 or EC50 that approximates it; ≥ and ≤ were set here for values at or beyond the usual limits of such assays; details: source organism: Marburg virus - Musoke, Kenya, 1980
HLA-A*69:01 = test: as above; details: source organism: Marburg virus - Musoke, Kenya, 1980
HLA-A*30:01 = test: IEDB peptide-MHC binding, purified MHC/competitive/radioactivity; filed as Kd, often an IC50 or EC50 that approximates it; ≥ and ≤ were set here for values at or beyond the usual limits of such assays
HLA-A*32:01 = test: as above
HLA-B*40:01 = test: as above; details: source organism: Dengue virus 2 Jamaica/1409/1983
[6] = source organism: Zaire ebolavirus
[7] = source organism: Dengue virus 3 Martinique/1243/1999
[8] = source organism: Sudan ebolavirus
[9] = source organism: Dengue virus 4 Philippines/H241/1956
[10] = source organism: Mycobacterium tuberculosis
[11] = source organism: Vaccinia virus WR
[12] = source organism: Dengue virus 2 Jamaica/1409/1983
[13] = source organism: Vaccinia virus
[14] = source organism: Dengue virus 1 Brazil/97-11/1997

Q: Which results are given for LGVIHNSTL?
A: IC50 (HLA-A*02:01 [1]; [6]): 69.1 µM; IC50 (HLA-A*24:02; [6]): 50.9 µM

Q: With LLNNSLGSV as the sequence, how does the Kd (HLA-A*02:01 [2]) read?
A: Its Kd is 3.6 nM.

Q: For LLWKTWYPC, which Kd (HLA-B*07:02; source organism: Homo sapiens) is on record?
A: The Kd was 14.6 µM.

Q: How did the Kd (HLA-B*58:01) turn out when LSDHQDLKW was run?
A: Its Kd is 26.6 nM.

Q: And the Kd (HLA-A*01:01 [3]; source organism: SARS-CoV1)?
A: The Kd was 818 nM.

Q: LTDFQSHQLW was tested. Which Kd (HLA-B*53:01; source organism: Dengue virus 1 Singapore/S275/1990) did it give?
A: The Kd was 1580 nM.

Q: And the Kd (HLA-A*01:01 [4])?
A: The Kd was 3.68 µM.

Q: Which Kd (HLA-B*44:02; [7]) does the source give for MEDKTPVTTW here?
A: Its Kd is 115 nM.

Q: And the Kd (HLA-B*44:03; [7])?
A: Its Kd is 180 nM.

Q: What does the source list for MEGLSLLQL?
A: IC50 (HLA-A*02:01 [1]; [8]): ≥ 88.9 µM; IC50 (HLA-A*24:02; [8]): 22.3 µM

Q: How did the Kd (HLA-B*44:03; [9]) turn out when MEVEIWTRE was run?
A: The Kd was 1080 nM.

Q: For MFLITENKIW, which Kd (HLA-B*53:01; source organism: Dengue virus 1 Nauru/West Pac/1974) is on record?
A: Its Kd is 8870 nM.

Q: For MIRAQAGSL, which Kd (HLA-B*07:02; [10]) is on record?
A: Its Kd is 0.0335 µM.

Q: Which results are given for MLAKYDHLV?
A: Kd (HLA-A*02:01 [5]): 27 nM; Kd (HLA-A*69:01): 104 nM

Q: Which Kd (HLA-A*30:01; [11]) does the source give for MSRRYSREK here?
A: Its Kd is 1.31 nM.

Q: How did the Kd (HLA-A*32:01; [11]) turn out when MTLFKSILF was run?
A: The Kd was 11.3 nM.

Q: MTLGMCCII was tested. Which Kd (HLA-A*32:01; [12]) did it give?
A: The Kd was 2590 nM.

Q: How did the Kd (HLA-B*53:01; [9]) turn out when MTTEDMLKVW was run?
A: Its Kd is 1150 nM.

Q: For MTVASRQPI, which Kd (HLA-A*32:01; [11]) is on record?
A: The Kd was 2860 nM.

Q: For NHALSELPET, which Kd (HLA-A*30:01; [12]) is on record?
A: The Kd was 1240 nM.

Q: Which results are given for NIGNTKSNI?
A: IC50 (HLA-A*02:01 [1]; [13]): ≥ 662 µM; IC50 (HLA-A*24:02; [13]): ≥ 176 µM

Q: How did the Kd (HLA-A*01:01 [3]; [10]) turn out when PTTTYTLEY was run?
A: The Kd was 14.2 nM.

Q: PYFGPAAEG was tested. Which IC50 (HLA-A*24:02; [6]) did it give?
A: Its IC50 is 13 µM.

Q: How did the Kd (HLA-A*32:01; [14]) turn out when QYSDRRWCFD was run?
A: Its Kd is no less than 53500 nM.

Q: How did the Kd (HLA-A*30:01; source organism: Cowpox virus) turn out when RAREQISNL was run?
A: The Kd was 2.73 nM.

Q: REEEEAGVLW was tested. Which Kd (HLA-B*44:02; [12]) did it give?
A: Its Kd is 51.2 nM.

Q: And the Kd (HLA-B*44:03; [12])?
A: The Kd was 36.1 nM.

Q: How did the Kd (HLA-B*44:03; [7]) turn out when RETACLGKAY was run?
A: Its Kd is 17.9 nM.

Q: Which Kd (HLA-A*30:01; [11]) does the source give for RFRFRSVYG here?
A: Its Kd is 0.357 nM.

Q: With RQVEKVETW as the sequence, how does the Kd (HLA-A*32:01; [7]) read?
A: Its Kd is 79.6 nM.

Q: Which IC50 (HLA-A*24:02; [6]) does the source give for RTSSDPGTN here?
A: Its IC50 is no less than 98.1 µM.

Q: With RTYSDPLAL as the sequence, how does the Kd (HLA-A*32:01; [14]) read?
A: The Kd was 33.4 nM.

Q: Which results are given for SEFQIYKKSG?
A: Kd (HLA-B*40:01): 407 nM; Kd (HLA-B*44:03; [12]): 3730 nM
